Measurements published in the supplement of paper PMC10724198.
± gives the standard deviation of the averaged measurements.

tested on: Saccharomyces cerevisiae; assay: protein stability index of tFT-peptide fusion (C-terminal peptide) (PSI (0-1 scale)); higher = more stable (slower turnover); conditions: genetic background: wild type; temperature: 30 C
Experimental: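 Multiplexed protein stability (MPS) profiling in S. cerevisiae. Random 12-aa peptides (tFT-X12 library) are fused to the C-terminus of a sfGFP-mCherry tandem fluorescent timer, after mCherry and a GGGS linker. Cells are FACS-sorted into 8 mCherry/sfGFP bins and deep-sequenced. The protein stability index (PSI) is the read-weighted bin average, scaled from 0 (unstable) to 1 (stable). Only peptides with >10 reads are reported; cells were grown at 30 °C in SC-His with glucose.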
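Note: PSI is a weighted mean of sequencing reads over stability bins, variants kept only with over 10 reads, mCherry proximal and sfGFP distal, peptide attached via GGGS linker.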

| Sequence | protein stability index |
| --- | --- |
| GWLCARGSSSRP | 0.649 ± 0.0067 |
| GWLGVRVCLAQR | 0.616 ± 0.0081 |
| GWLLGVGDEFRR | 0.734 ± 0.031 |
| GWRGDTSGGGWR | 0.655 ± 0.03 |
| GWRGRRGERARG | 0.749 ± 0.054 |
| GWRGVGVGGGVC | 0.689 ± 0.017 |
| GWSGWFSRVLRG | 0.726 ± 0.039 |
| GWTLIFGRTSEG | 0.678 ± 0.023 |
| GWVKWGVGIGRG | 0.734 ± 0.079 |
| GWWGGEGVEGEP | 0.6846 ± 0.0015 |
| GWWGGGGGAWSG | 0.697 ± 0.065 |
| GYGLGVEAEGLE | 0.715 ± 0.054 |
| GYGSSVYAVQKL | 0.608 ± 0.0096 |
| GYILSFPSVGGW | 0.724 ± 0.049 |
| GYLNWIDTRTSE | 0.79 ± 0.086 |
| GYNLTNVIPGVG | 0.681 ± 0.016 |
| GYPIIIFYSAVQ | 0.529 ± 0.051 |
| GYPPDPSPPRLL | 0.724 ± 0.015 |
| GYRRELGVCSGD | 0.586 ± 0.08 |
| GYTSADHATALY | 0.755 ± 0.054 |
| GYWPWGLARVDV | 0.698 ± 0.017 |
| HACGGVFLSSVR | 0.693 ± 0.025 |
| HAGLLTSSHPGR | 0.705 ± 0.018 |
| HAISHRVFLHSP | 0.665 ± 0.025 |
| HALWRASVGQCG | 0.693 ± 0.068 |
| HAQTNSNSQLLL | 0.677 ± 0.0076 |

| Sequence | protein stability index |
| --- | --- |
| HDDQIRASQNKL | 0.747 ± 0.026 |
| HDLVRECVGPVH | 0.602 ± 0.024 |
| HDVGEYVKKNRF | 0.653 ± 0.011 |
| HEGAISLCRQTC | 0.592 ± 0.058 |
| HEIRSQSFGLYV | 0.687 ± 0.025 |
| HETRGKTEQNWM | 0.645 ± 0.053 |
| HFAAVFATSISG | 0.675 ± 0.02 |
| HFCFKVFSVRAP | 0.627 ± 0.018 |
| HFPFYPSAPPPF | 0.713 ± 0.056 |
| HFPTTSITPIYC | 0.601 ± 0.019 |
| HFSDLIRFFFFA | 0.579 ± 0.064 |
| HGCRLCFISSWL | 0.663 ± 0.0057 |
| HGERMRKSPREE | 0.672 ± 0.11 |
| HGGSFSAFWYLL | 0.676 ± 0.027 |
| HGGTGDPAGIES | 0.694 ± 0.013 |
| HGTRPFLAPMTP | 0.672 ± 0.0092 |
| HGVSERPSISEY | 0.6797 ± 0.0066 |
| HGVTPFFSSSPR | 0.632 ± 0.012 |
| HGVVGWKVNVGG | 0.695 ± 0.018 |
| HHIAYTALSVWS | 0.663 ± 0.011 |
| HHVDLHLSLPSP | 0.649 ± 0.032 |
| HILESKKAGPGD | 0.635 ± 0.053 |
| HILSPPPRPPLV | 0.719 ± 0.02 |
| HIPAFLSRFIHG | 0.685 ± 0.038 |
| HISACKFPARTA | 0.692 ± 0.057 |
| HKGRVRACVFGV | 0.666 ± 0.017 |

| Sequence | protein stability index |
| --- | --- |
| HKKRPKIRSNEY | 0.622 ± 0.026 |
| HKLYATANHSPM | 0.672 ± 0.1 |
| HLFNLVRIRTDL | 0.703 ± 0.049 |
| HLGTLYSSPLYR | 0.66289 ± 0.00054 |
| HLHAPSPPTLTL | 0.682 ± 0.013 |
| HLIQPDPRASNN | 0.751 ± 0.098 |
| HLKRFLQVHARL | 0.82 ± 0.075 |
| HLLRSDPAWFSG | 0.705 ± 0.009 |
| HLPPPPTLPPFP | 0.6905 ± 0.0068 |
| HLSDAGSPDGAN | 0.628 ± 0.063 |
| HLSLFHIALPPP | 0.6888 ± 0.0053 |
| HLTIVNYIWEIL | 0.549 ± 0.0059 |
| HLVYRRGLEVTF | 0.615 ± 0.061 |
| HMLRLIDFQSIV | 0.685 ± 0.042 |
| HPAPGSPPAAHL | 0.734 ± 0.073 |
| HPASPPTPPPLP | 0.663 ± 0.014 |
| HPFARSLRSQIT | 0.734 ± 0.043 |
| HPGVPGSPFLSC | 0.714 ± 0.041 |
| HPHAIDPKIESI | 0.693 ± 0.035 |
| HPMVFRLAAPRL | 0.779 ± 0.18 |
| HPPHFPTPFFSP | 0.702 ± 0.036 |
| HPPLRPPLGSRF | 0.868 ± 0.045 |
| HPPLTPLRANLP | 0.74 ± 0.039 |
| HPPRVLHGVPSG | 0.629 ± 0.075 |
| HPPSSLLSPPSP | 0.702 ± 0.042 |
| HPRSAYSLAASL | 0.6633 ± 0.00083 |

| Sequence | protein stability index |
| --- | --- |
| HPSAALLSSCYK | 0.677 ± 0.047 |
| HPSPFTPPTNPY | 0.733 ± 0.06 |
| HPSPPAPAPLYP | 0.667 ± 0.11 |
| HPSRPPRASPPS | 0.693 ± 0.03 |
| HPVSVKPSESSR | 0.668 ± 0.073 |
| HQRGGPLPSSRR | 0.739 ± 0.12 |
| HQSISLSGAMLT | 0.65 ± 0.0088 |
| HQVPSPPPPGPL | 0.707 ± 0.2 |
| HQYSRHASIRTL | 0.623 ± 0.06 |
| HRCRVGGSRFEK | 0.671 ± 0.036 |
| HRLGNRGGRTLG | 0.6512 ± 0.0057 |
| HRPPATFPVAHP | 0.735 ± 0.042 |
| HRPPATPADPCS | 0.684 ± 0.019 |
| HRPSPSPSPPLP | 0.752 ± 0.056 |
| HRPTRLIKKNLA | 0.732 ± 0.033 |
| HRRMGVGGCLEE | 0.682 ± 0.046 |
| HRVPRLRGQNPP | 0.635 ± 0.0073 |
| HRVVGVTLSVPS | 0.71 ± 0.071 |
| HSALLRSASLSF | 0.705 ± 0.022 |
| HSAPDLPPLPRV | 0.711 ± 0.02 |
| HSCSRPLTPPPF | 0.72 ± 0.028 |
| HSGGRVYSYACI | 0.6851 ± 0.0017 |
| HSIPWTRTRPGC | 0.687 ± 0.016 |
| HSLLPSYPFLSP | 0.715 ± 0.076 |
| HSPHLLSFFSPM | 0.71 ± 0.076 |
| HSPSSLPRLRPQ | 0.621 ± 0.044 |

| Sequence | protein stability index |
| --- | --- |
| HSRPPPSPPDPA | 0.603 ± 0.033 |
| HSRTLTQKKTNN | 0.715 ± 0.038 |
| HSSHPRPHRTLI | 0.661 ± 0.012 |
| HSWSLLFSPSFP | 0.658 ± 0.082 |
| HTAYPPPHRTPP | 0.629 ± 0.11 |
| HTEYQGAGIPDE | 0.752 ± 0.037 |
| HTFSRLHSLPIR | 0.693 ± 0.0082 |
| HTNKNTTIQNKK | 0.702 ± 0.11 |
| HTRPTALLPLSR | 0.701 ± 0.014 |
| HTSKFKKQRKKR | 0.7975 ± 0.0022 |
| HTWALERVCSLD | 0.687 ± 0.066 |
| HTYQAAFRSHAI | 0.6544 ± 0.00072 |
| HVKLLSSNGPLV | 0.671 ± 0.031 |
| HVLRVWKMCVLE | 0.586 ± 0.033 |
| HVTFPLRRTFRR | 0.697 ± 0.013 |
| HWRRGGRRGGDR | 0.703 ± 0.1 |
| HYPGSGAVEQHE | 0.599 ± 0.016 |
| HYSPLPSLPPLP | 0.684 ± 0.077 |
| IADRLAAIPMRY | 0.669 ± 0.011 |
| IARTGLGIIIKI | 0.663 ± 0.054 |
| IASSRPHSNQRE | 0.692 ± 0.021 |
| ICRGLTVPGVAI | 0.612 ± 0.0095 |
| ICWSTALDASFG | 0.725 ± 0.024 |
| IDLLTRKVDLFN | 0.66 ± 0.055 |
| IDLTLLRHPAYL | 0.732 ± 0.05 |
| IDSWWLPSDLKV | 0.835 ± 0.017 |

| Sequence | protein stability index |
| --- | --- |
| IDVLTGTDAGPT | 0.6278 ± 0.004 |
| IECACVPLVAGG | 0.656 ± 0.024 |
| IECLRVVRSRCG | 0.6724 ± 0.0023 |
| IEKKNKTKKKRI | 0.748 ± 0.13 |
| IERGLEGHLGHC | 0.668 ± 0.035 |
| IESRGCSMQKRL | 0.7489 ± 0.0039 |
| IESVGRTTRQGE | 0.748 ± 0.11 |
| IFRERWGCFEAI | 0.763 ± 0.13 |
| IFRLFAFHENRG | 0.679 ± 0.051 |
| IFSIRCFHSDFV | 0.6486 ± 0.0028 |
| IFVCRCFGFFGG | 0.681 ± 0.04 |
| IGAHTRRRVNGA | 0.675 ± 0.096 |
| IGCCSGYGGERG | 0.691 ± 0.018 |
| IGGIIFICTSNK | 0.555 ± 0.015 |
| IGGVSHEMKAKR | 0.619 ± 0.013 |
| IGLISTQYYWSL | 0.621 ± 0.043 |
| IGPRGPFHLTRI | 0.675 ± 0.037 |
| IGSEGGKNGRRK | 0.616 ± 0.044 |
| IGVGVGIDGLPW | 0.693 ± 0.093 |
| IHCFSVDLLVAR | 0.542 ± 0.018 |
| IHLTRGGNGHMD | 0.6 ± 0.04 |
| IHPKREPRDNNI | 0.679 ± 0.015 |
| IHVKKNQACSLF | 0.646 ± 0.024 |
| IIDKQENNLKSE | 0.7513 ± 0.0011 |
| IIKPPDIQQSRQ | 0.739 ± 0.026 |
